Literature values, collected in patent US20100086958A1, “NOVEL ENZYME” (priority 2008, published 2010).
Changes are numbered by the printed parent chain. Numbers in names are those of the source. Like-named read-outs stand apart in the source and are kept apart here.

How the values were obtained:
[1] = literature, cited from earlier work; for Km: read-out: Km NAD^+
[2] = unit = μmol formate oxidized per min; literature; cited from earlier work
[3] = literature, cited from earlier work; for Km: read-out: Km NADP^+
[4] = data from Serov et al. (2002), cited from earlier work
[5] = ADHs (DroADH, SceADH), AlaDHs, GAPDH

B1: WT_BstGAPDH: wild type glyceraldehydes-3-phosphate dehydrogenase from Bacillus stearothermophilus (protein, UniProt P00362 2-335, looked up)
Glyceraldehyde-3-phosphate …: AVKVGINGFGRIGRNVFRAALKNPDIEVVAVNDLTDANTLAHLLKYDSVHGRLDAEVSVNGNNLVVNGKEIIVKAERDPENLAWGEIGVDIVVESTGRFTKREDAAKHLEAGAKKVIISAPAKNEDITIVMGVNQDKYDPKAHHVISNASCTTNCLAPFAKVLHEQFGIVRGMMTTVHSYTNDQRILDLPHKDLRRARAAAESIIPTTTGAAKAVALVLPELKGKLNGMAMRVPTPNVSVVDLVAELEKEVTVEEVNAALKAAAEGELKGILAYSEEPLVSRDYNGSTVSSTIDALSTMVIDGKMVKVVSWYDNETGYSHRVVDLAAYIASKGL
In the case of B1, the “kcat NAD^+” value [1, 5] is listed as 280 s⁻¹ and the Km [1, 5] is listed as 150 µM.

B2: CboFDH: wild type FDH from Candida Boidinii, Seq ID No: 13 (protein, listed as Candida boidinii)
chain: MKIVLVLYDAGKHAADEEKLYGCTENKLGIANWLKDQGHELITTSDKEGGNSVLDQHIPDADIIITTPFHPAYITKERIDKAKKLKLVVVAGVGSDHIDLDYINQTGKKISVLEVTGSNVVSVAEHVVMTMLVLVRNFVPAHEQIINHDWEVAAIAKDAYDIEGKTIATIGAGRIGYRVLERLVPFNPKELLYYDYQALPKDAEEKVGARRVENIEELVAQADIVTVNAPLHAGTKGLINKELLSKFKKGAWLVNTARGAICVAEDVAAALESGQLRGYGGDVWFPQPAPKDHPWRDMRNKYGAGNAMTPHYSGTTLDAQTRYAQGTKNILESFFTGKFDYRPQDIILLNGEYVTKAYGKHDKK
In the case of B2, the “activity with NADP^+” value [2] is given as 0.0013 U/mg and the “activity with NAD^+” value [2] is given as 2.2 U/mg.

B3: C. bodinii D195S: D195S mutant of C. bodinii FDH (protein, UniProt O13437 1-364, looked up, variant D195S)
Formate dehydrogenase: B2 chain with G50E, N51T, V53E, Q56K, I79L, K84N, V184L, D195S, D202E, Q325E
In the case of B3, the “activity with NADP^+” value [2] is given as 0.083 U/mg and the “activity with NAD^+” value [2] is given as 1.5 U/mg.

B4: WT_SceADH: wild type ADH from Saccharomyces cerevisiae (protein, UniProt P00330 2-348, looked up)
Alcohol dehydrogenase 1: SIPETQKGVIFYESHGKLEYKDIPVPKPKANELLINVKYSGVCHTDLHAWHGDWPLPVKLPLVGGHEGAGVVVGMGENVKGWKIGDYAGIKWLNGSCMACEYCELGNESNCPHADLSGYTHDGSFQQYATADAVQAAHIPQGTDLAQVAPILCAGITVYKALKSANLMAGHWVAISGAAGGLGSLAVQYAKAMGYRVLGIDGGEGKEELFRSIGGEVFIDFTKEKDIVGAVLKATDGGAHGVINVSVSEAAIEASTRYVRANGTTVLVGMPAGAKCCSDVFNQVVKSISIVGSYVGNRADTREALDFFARGLVKSPIKVVGLSTLPEIYEKMEKGQIVGRYVVDTSK
In the case of B4, the “kcat NAD^+” value [1, 5] is given as 360 s⁻¹ and the Km [1, 5] is given as 160 µM.

B5: WT_PstPTDH: wild type phosphate dehydrogenase from Pseudomonas stutzeri (protein, UniProt O69054 1-336, looked up)
Phosphonate dehydrogenase: MLPKLVITHRVHDEILQLLAPHCELMTNQTDSTLTREEILRRCRDAQAMMAFMPDRVDADFLQACPELRVVGCALKGFDNFDVDACTARGVWLTFVPDLLTVPTAELAIGLAVGLGRHLRAADAFVRSGEFQGWQPQFYGTGLDNATVGILGMGAIGLAMADRLQGWGATLQYHEAKALDTQTEQRLGLRQVACSELFASSDFILLALPLNADTQHLVNAELLALVRPGALLVNPCRGSVVDEAAVLAALERGQLGGYAADVFEMEDWARADRPRLIDPALLAHPNTLFTPHIGSAVRAVRLEIERCAAQNIIQVLAGARPINAANRLPKAEPAAC
In the case of B5, the “kcat NADP^+” value ([3]; PTDH) is given as 1.41 ± 0.0083 s⁻¹, the Km ([3]; PTDH) is given as 2510 ± 410 µM and the “kcat NAD^+” value ([1]; PTDH) is given as 2.93 ± 0.14 s⁻¹. The Km ([1]; PTDH) was 53 ± 9 µM.

B6: A176R PstPTDH: A176R mutant of phosphate dehydrogenase from Pseudomonas stutzeri (protein, UniProt O69054 1-336, looked up, variant A176R)
Phosphonate dehydrogenase: B5 Phosphonate dehydrogenase with A176R
In the case of B6, the “kcat NADP^+” value ([3]; PTDH) is listed as 2.18 ± 0.0067 s⁻¹, the Km ([3]; PTDH) is listed as 77 ± 8.4 µM and the “kcat NAD^+” value ([1]; PTDH) is listed as 4.28 ± 0.0083 s⁻¹. For the same molecule, the Km ([1]; PTDH) was 60 ± 7 µM.

B7: E175A/A176R PstPTDH: E175A/A176R mutant of phosphate dehydrogenase from Pseudomonas stutzeri (protein, UniProt O69054 1-336, looked up, variant E175A A176R)
Phosphonate dehydrogenase: B5 Phosphonate dehydrogenase with E175A, A176R
In the case of B7, the “kcat NADP^+” value ([3]; PTDH) is listed as 1.9 ± 0.0083 s⁻¹, the Km ([3]; PTDH) is listed as 3.5 ± 0.5 µM and the “kcat NAD^+” value ([1]; PTDH) is listed as 3.94 ± 0.0083 s⁻¹. The Km ([1]; PTDH) was 20 ± 1.3 µM.

B8: E175A PstPTDH: E175A mutant of phosphate dehydrogenase from Pseudomonas stutzeri (protein, UniProt O69054 1-336, looked up, variant E175A)
Phosphonate dehydrogenase: B5 Phosphonate dehydrogenase with E175A
In the case of B8, the “kcat NADP^+” value ([3]; PTDH) is listed as 2.18 ± 0.0067 s⁻¹, the Km ([3]; PTDH) is listed as 144 ± 14 µM and the “kcat NAD^+” value ([1]; PTDH) is listed as 3.5 ± 0.005 s⁻¹. For the same molecule, the Km ([1]; PTDH) was 16 ± 0.8 µM.

B9: WT_17β-HSDHs: wild type human estrogenic 17β-hydroxysteroid dehydrogenase (protein, UniProt P14061 2-328, looked up)
17-beta-hydroxysteroid …: ARTVVLITGCSSGIGLHLAVRLASDPSQSFKVYATLRDLKTQGRLWEAARALACPPGSLETLQLDVRDSKSVAAARERVTEGRVDVLVCNAGLGLLGPLEALGEDAVASVLDVNVVGTVRMLQAFLPDMKRRGSGRVLVTGSVGGLMGLPFNDVYCASKFALEGLCESLAVLLLPFGVHLSLIECGPVHTAFMEKVLGSPEEVLDRTDIHTFHRFYQYLAHSKQVFREAAQNPEEVAEVFLTALRAPKPTLRYFTTERFLPLLRMRLDDPSGSNYVTAMHREVFGDVPAKAEAGAEAGGGAGPGAEDEAGRGAVGDPELGDPPAAPQ
For B9, the “kcat NADP^+” value ([3]; 17β-HSDHs) is listed as 4.2 ± 0.2 s⁻¹, the “kcat NAD^+” value ([1]; 17β-HSDHs) is listed as 7.5 ± 0.1 s⁻¹ and the Km ([1]; 17β-HSDHs) is listed as 11.8 ± 0.8 µM.

B10: L36D 17β-HSDHs: L36D mutant of human estrogenic 17β-hydroxysteroid dehydrogenase (protein, UniProt P14061 2-328, looked up, variant L36D)
17-beta-hydroxysteroid …: B9 17-beta-hydroxysteroid … with L36D
For B10, the “kcat NADP^+” value ([3]; 17β-HSDHs) is given as 16.7 ± 2.2 s⁻¹, the “kcat NAD^+” value ([1]; 17β-HSDHs) is given as 13.9 ± 0.8 s⁻¹ and the Km ([1]; 17β-HSDHs) is given as 83 ± 5 µM.

B11: SceFDH: FDH from S. cerevisiae, Seq ID No: 4 (protein, listed as Saccharomyces cerevisiae)
chain: MSKGKVLLVLYEGGKHAEEQEKLLGCIENELGIRNFIEEQGYELVTTIDKDPEPTSTVDRELKDAEIVITTPFFPAYISRNRIAEAPNLKLCVTAGVGSDHVDLEAANERKITVTEVTGSNVVSVAEHVMATILVLIRNYNGGHQQAINGEWDIAGVAKNEYDLEDKIISTVGAGRIGYRVLERLVAFNPKKLLYYDYQELPAEAINRLNEASKLFNGRGDIVQRVEKLEDMVAQSDVVTINCPLHKDSRGLFNKKLISHMKDGAYLVNTARGAICVAEDVAEAVKSGKLAGYGGDVWDKQPAPKDHPWRTMDNKDHVGNAMTVHISGTSLDAQKRYAQGVKNILNSYFSKKFDYRPQDIIVQN
For B11, the “kcat NAD^+” value [4] is given as 6.5 ± 0.4 s⁻¹ and the Km ([4]; read-out: Km NAD^+) is given as 36 ± 5 µM.

B12: C. bodinii D195S/Y196H: D195S/Y196H mutant of C. bodinii FDH (protein, UniProt O13437 1-364, looked up, variant D195S Y196H)
Formate dehydrogenase: MKIVLVLYDAGKHAADEEKLYGCTENKLGIANWLKDQGHELITTSDKEGETSELDKHIPDADIIITTPFHPAYITKERLDKAKNLKLVVVAGVGSDHIDLDYINQTGKKISVLEVTGSNVVSVAEHVVMTMLVLVRNFVPAHEQIINHDWEVAAIAKDAYDIEGKTIATIGAGRIGYRVLERLLPFNPKELLYYSHQALPKEAEEKVGARRVENIEELVAQADIVTVNAPLHAGTKGLINKELLSKFKKGAWLVNTARGAICVAEDVAAALESGQLRGYGGDVWFPQPAPKDHPWRDMRNKYGAGNAMTPHYSGTTLDAQTRYAEGTKNILESFFTGKFDYRPQDIILLNGEYVTKAYGKHDKK
In the case of B12, the “activity with NADP^+” value [2] is listed as 0.19 U/mg and the “activity with NAD^+” value [2] is listed as 1.3 U/mg.

B13: C. bodinii D195S/Y196H/K356T: D195S/Y196H/K356T mutant of C. bodinii FDH (protein, UniProt O13437 1-364, looked up, variant D195S Y196H K356T)
Formate dehydrogenase: B12 Formate dehydrogenase with K356T
For B13, the “activity with NADP^+” value [2] is listed as 0.36 U/mg and the “activity with NAD^+” value [2] is listed as 1.3 U/mg.

B14: WT_DroADH: wild type ADH from Drosophila (protein, UniProt P00334 2-256, looked up)
Alcohol dehydrogenase: SFTLTNKNVIFVAGLGGIGLDTSKELLKRDLKNLVILDRIENPAAIAELKAINPKVTVTFYPYDVTVPIAETTKLLKTIFAQLKTVDVLINGAGILDDHQIERTIAVNYTGLVNTTTAILDFWDKRKGGPGGIICNIGSVTGFNAIYQVPVYSGTKAAVVNFTSSLAKLAPITGVTAYTVNPGITRTTLVHKFNSWLDVEPQVAEKLLAHPTQPSLACAENFVKAIELNQNGAIWKLDLGTLEAIQWTKHWDSGI
For B14, the “kcat NADP^+” value [3, 5] is given as 0.715 s⁻¹, the Km [3, 5] is given as 3090 ± 700 µM and the “kcat NAD^+” value [1, 5] is given as 10.2 s⁻¹. The Km [1, 5] was 48 ± 1 µM.

B15: A46R DroADH: A46R mutant of ADH from Drosophila (protein, UniProt P00334 2-256, looked up, variant A46R)
Alcohol dehydrogenase: B14 Alcohol dehydrogenase with A45R
For B15, the “kcat NADP^+” value [3, 5] is given as 1.9 s⁻¹, the Km [3, 5] is given as 1270 ± 100 µM and the “kcat NAD^+” value [1, 5] is given as 7.3 s⁻¹. The Km [1, 5] was 57 ± 3 µM.

B16: WT_PstXDH: wild type xylitol dehydrogenase from Pichia stipitis (protein, UniProt P22144 1-363, looked up)
D-xylulose reductase: MTANPSLVLNKIDDISFETYDAPEISEPTDVLVQVKKTGICGSDIHFYAHGRIGNFVLTKPMVLGHESAGTVVQVGKGVTSLKVGDNVAIEPGIPSRFSDEYKSGHYNLCPHMAFAATPNSKEGEPNPPGTLCKYFKSPEDFLVKLPDHVSLELGALVEPLSVGVHASKLGSVAFGDYVAVFGAGPVGLLAAAVAKTFGAKGVIVVDIFDNKLKMAKDIGAATHTFNSKTGGSEELIKAFGGNVPNVVLECTGAEPCIKLGVDAIAPGGRFVQVGNAAGPVSFPITVFAMKELTLFGSFRYGFNDYKTAVGIFDTNYQNGRENAPIDFEQLITHRYKFKDAIEAYDLVRAGKGAVKCLIDGPE
For B16, the “kcat NADP^+” value ([3]; ADHs (KlADH III), G6PDHs, XDHs) is given as 1.83 ± 0.167 s⁻¹, the “kcat NAD^+” value ([1]; ADHs (KlADH III), G6PDHs, XDHs) is given as 17.5 ± 0.5 s⁻¹ and the Km ([1]; ADHs (KlADH III), G6PDHs, XDHs) is given as 381 ± 30 µM.
